Experimental data: article PMC9457175

Molecular target: KARS1 (human), Q15046
Assay: RNA immunoprecipitation with qRT-PCR
Conditions: remark: other sources report otherwise

Chain of KARS1 (human), Q15046 (Q15046 whole entry): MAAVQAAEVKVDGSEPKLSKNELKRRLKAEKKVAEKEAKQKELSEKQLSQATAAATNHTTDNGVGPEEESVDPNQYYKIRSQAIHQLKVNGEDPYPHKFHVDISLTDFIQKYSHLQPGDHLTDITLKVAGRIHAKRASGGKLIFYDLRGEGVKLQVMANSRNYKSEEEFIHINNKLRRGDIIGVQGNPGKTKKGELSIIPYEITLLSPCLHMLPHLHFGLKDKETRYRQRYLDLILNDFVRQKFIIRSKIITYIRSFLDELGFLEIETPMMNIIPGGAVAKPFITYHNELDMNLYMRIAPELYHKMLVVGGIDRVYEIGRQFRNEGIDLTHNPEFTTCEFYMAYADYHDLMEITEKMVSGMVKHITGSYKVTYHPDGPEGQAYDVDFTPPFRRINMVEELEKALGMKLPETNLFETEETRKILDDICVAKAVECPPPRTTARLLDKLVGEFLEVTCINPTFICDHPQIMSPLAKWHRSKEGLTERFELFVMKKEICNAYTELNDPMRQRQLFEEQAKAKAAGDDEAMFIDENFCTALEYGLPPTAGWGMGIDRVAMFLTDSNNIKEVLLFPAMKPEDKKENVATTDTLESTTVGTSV

fold enrichment of mRNA (anti-FLAG RIP over IgG): 9.7 fold
B1: AIMP1, Q12904 (natural protein)
chain: MANNDAVLKRLEQKGAEADQIIEYLKQQVSLLKEKAILQATLREEKKLRVENAKLKKEIEELKQELIQAEIQNGVKQIPFPSGTPLHANSMVSENVIQSTAVTTVSSGTKEQIKGGTGDEKKAKEKIEKKGEKKEKKQQSIAGSADSKPIDVSRLDLRIGCIITARKHPDADSLYVEEVDVGEIAPRTVVSGLVNHVPLEQMQNRMVILLCNLKPAKMRGVLSQAMVMCASSPEKIEILAPPNGSVPGDRITFDAFPGEPDKELNPKKKIWEQIQPDLHTNDECVATYKGVPFEVKGKGVCRAQTMSNSGIK
